Laboratory results published in PMC12548442.

Legend:
Experiment in all cases: NanoBRET
[1] = molecular target: HaloTag-fused and NanoLuc-fused Gag-MA-G2A (NanoBRET pair); conditions: living cells; n = 6; mean ± SE; WMAA signal subtracted; parent: est. 100
[2] = molecular target: HaloTag-fused and NanoLuc-fused Gag-MA-S9F (NanoBRET pair); conditions: living cells; n = 6; mean ± SE; WMAA signal subtracted; parent: est. 100; read off a plot
[3] = molecular target: HaloTag-fused and NanoLuc-fused Gag-CA-WM184/185AA (NanoBRET pair); conditions: living cells; n = 6; mean ± SE; WMAA signal subtracted; parent: est. 100; read off a plot
[4] = molecular target: HaloTag-fused and NanoLuc-fused Gag-MA-S9I (NanoBRET pair); conditions: living cells; n = 6; mean ± SE; WMAA signal subtracted; parent: est. 100; read off a plot
[5] = molecular target: HaloTag-fused and NanoLuc-fused Gag-MA-S9A (NanoBRET pair); conditions: living cells; n = 6; mean ± SE; WMAA signal subtracted; parent: est. 100; read off a plot
[6] = molecular target: HaloTag-fused and NanoLuc-fused Gag-MA-S9W (NanoBRET pair); conditions: living cells; n = 6; mean ± SE; WMAA signal subtracted; parent: est. 100; read off a plot

## HaloTag-fused Gag and NanoLuc-fused Gag, wild type (NanoBRET pair) G2A
[1]
  percent of parent: 0%

## HaloTag-fused Gag and NanoLuc-fused Gag, wild type (NanoBRET pair) S9F
[2]
  percent of parent: 8.6%

## HaloTag-fused Gag and NanoLuc-fused Gag, wild type (NanoBRET pair) W184A; M185A
[3]
  percent of parent: 0%

## HaloTag-fused Gag and NanoLuc-fused Gag, wild type (NanoBRET pair) S9I
[4]
  percent of parent: 68%

## HaloTag-fused Gag and NanoLuc-fused Gag, wild type (NanoBRET pair) S9A
[5]
  percent of parent: 72%

## HaloTag-fused Gag and NanoLuc-fused Gag, wild type (NanoBRET pair) S9W
[6]
  percent of parent: 42%
